Experimental data reported in publication PMC10939073, “The major inducible small heat shock protein HSP20-3 in the tardigrade Ramazzottius varieornatus forms filament-like structures and is an active chaperone” (Cell Stress & Chaperones, 2023).

B1: human CRYAB (HSPB5) (natural protein, UniProt P02511 1-175, looked up)
chain: MDIAIHHPWIRRPFFPFHSPSRLFDQFFGEHLLESDLFPTSTSLSPFYLRPPSFLRAPSWFDTGLSEMRLEKDRFSVNLDVKHFSPEELKVKVLGDVIEVHGKHEERQDEHGFISREFHRKYRIPADVDPLTITSSLSSDGVLTVNGPRKQVSGPERTIPITREEKPAVTAAPKK
notes: human alpha-B crystallin CRYAB (HSPB5), recombinant; also called recombinant human CRYAB; source: E. coli, purified (ion exchange and size exclusion chromatography; as described previously)
B2: HSP20-3NCT, C-terminally truncated HSP20-3 (stop codon immediately after G191, repeated QNTN-motif removed) (domain or fragment, Ramazzottius varieornatus, UniProt A0A1D1UZ79 1-191, looked up)
chain: MSMQRYDDYNDYGNRQMRPHRGNYEMEPFFGGNLFGGIDHVMRSMTRDLARMEKHIFGSSDTPNIGSLINHNMAMVPNFIERDGQQLAQFQLDVRGFKPEDITIRTSENVMTVTARHEDKSDDHHAIREFRRMVTIPPGMQMEGMKSRLTPNGVLSIEAPFTPQANRQGDFYEIPIQHGSSSNRNSIQNSG
notes: untagged; same forward primer as HSP20-3; pET23b construct; also called CTD-truncated HSP20–3; source: E. coli BL21 (pLysS), purified (Q-Sepharose ion exchange, Superose 6 size exclusion)
B3: Ramazzottius varieornatus small heat shock protein HSP20-3 (natural protein, UniProt A0A1D1UZ79 1-218, looked up)
chain: MSMQRYDDYNDYGNRQMRPHRGNYEMEPFFGGNLFGGIDHVMRSMTRDLARMEKHIFGSSDTPNIGSLINHNMAMVPNFIERDGQQLAQFQLDVRGFKPEDITIRTSENVMTVTARHEDKSDDHHAIREFRRMVTIPPGMQMEGMKSRLTPNGVLSIEAPFTPQANRQGDFYEIPIQHGSSSNRNSIQNSGQNSSQNTNQNTNQNTNQNTNQNTNQNK
notes: a stop codon precedes the vector's C-terminal hexa-histidine tag, so the protein is untagged; pET23b construct; also called full length HSP20–3; RvY_03967; source: E. coli BL21 (pLysS), purified (Q-Sepharose ion exchange, Superose 6 size exclusion)
B4: Ramazzottius varieornatus small heat shock protein HSP20-6 (natural protein, UniProt A0A1D1VFU2 1-195, looked up)
chain: MSRNLARLLPQITNMLDTPFRRAVTPFNRYRWPASSLGFFDREFERMSNMMDRMHNDLWHSSSLLENPQGSQRGKMNQDLFNIVEENGKKKMRIIFEAERCKPEDIEIKAKGNHLEIKARTEEKGEHFQSIQEYSQYLTLPEGVKAEELTCQFEGGMVTLEAPYTPPAIEAPKDIPVQKEPAEPPVKHNIPIKHE
notes: a stop codon precedes the vector's C-terminal hexa-histidine tag, so the protein is untagged; pET23b construct; also called RvY_08665; source: E. coli BL21 (pLysS), purified (Q-Sepharose ion exchange, Superose 6 size exclusion)

Target: the molecule itself
Assay: SEC; Superose 6 10/300 column; eluted in 0.5 M NaH2PO4, 0.5 M Na2HPO4, 150 mM NaCl, 5 mM EDTA pH 8.0; calibrated with protein standards (670 kDa to 137 Da); self-association, oligomers

Binding result, binds:
B1
B2
B3
B4
